Measured values: article PMC10529453 (Cell reports, 2023)
Like-named read-outs stand apart in the source and are kept apart here.

T1: Ddc1 (S. cerevisiae, UniProt Q08949 1-612)
T1 sequence: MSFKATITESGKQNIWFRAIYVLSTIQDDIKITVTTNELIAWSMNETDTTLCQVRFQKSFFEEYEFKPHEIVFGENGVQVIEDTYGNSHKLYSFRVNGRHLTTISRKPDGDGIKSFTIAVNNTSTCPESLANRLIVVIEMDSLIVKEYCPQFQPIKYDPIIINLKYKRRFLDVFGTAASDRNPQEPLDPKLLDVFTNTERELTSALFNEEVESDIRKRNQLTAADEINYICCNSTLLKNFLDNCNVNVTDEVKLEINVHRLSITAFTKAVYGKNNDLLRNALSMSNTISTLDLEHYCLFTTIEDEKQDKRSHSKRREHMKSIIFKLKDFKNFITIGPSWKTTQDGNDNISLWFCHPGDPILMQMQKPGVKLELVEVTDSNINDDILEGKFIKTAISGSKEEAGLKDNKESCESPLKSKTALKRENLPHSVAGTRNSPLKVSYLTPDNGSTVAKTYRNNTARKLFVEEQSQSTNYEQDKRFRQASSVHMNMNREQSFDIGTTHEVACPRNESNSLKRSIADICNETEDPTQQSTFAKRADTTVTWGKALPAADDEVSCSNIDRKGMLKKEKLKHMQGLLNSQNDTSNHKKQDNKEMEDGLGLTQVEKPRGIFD

B1: 5-nt gapped DNA (cryo-EM) (mixed)
DNA 1: CGGTATAGGCGATACGAATCTTTTTCCGTATAGCCGTAGCGAGCC
DNA 2: GGCTCGCTACGGCTATACGG
DNA 3: GATTCGTATCGCCTATACCG
B2: 10-nt gapped DNA (cryo-EM) (mixed)
DNA 1: CGGTATAGGCGATACGAATCTTTTTTTTTTCCGTATAGCCGTAGCGAGCC
DNA 2: GGCTCGCTACGGCTATACGG
DNA 3: GATTCGTATCGCCTATACCG
B3: Rad17 (natural protein, S. cerevisiae)
chain: MRINSELANKFSASTVHLEHITTALSCLTPFGSKDDVLIFIDADGLSFVRENNHVIKIQLLLSRELFMSYSYRNETEDHMKLCVKINHILDSVSVMNRNSDDIVECTLSYDGHGSPFVLIFEDSFISERVEYSTYLIKDFDTNGLELDRERISFEAIIKGEALHSALKDLKEIGCKECYVYAKTEANDENVFALISKSQLGFSKIKLPSNRSILEKLQVFDGDSTTVIDGFAVIGFFDFTSFDKIRKSTKIASKVLFRMDVHGVLSVNILSQTDDVIITDTTRPSNNRPGSIRQLQLPKDYPGIVIEVCMLEKESIDEAAQTEIELLMETNELGNRNSFKKSTIRKRYGTDKGNETSNDNLLQLNGKKIKLPSEEENNKNRESEDEENHCKYPTKDIPIFF
B4: 10-nt gap DNA (loading) (mixed)
DNA 1: CGGTATAGGCGATACGAATCTTTTTTTTTTCCGTATAGCCGTAGCGAGCCCGACCATACC
DNA 2: GGTATGGTCGGGCTCGCTACGGCTATACGG
DNA 3: GATTCGTATCGCCTATACCG
modifications: 5' phosphate on primer 2
B5: Mec3 (natural protein, S. cerevisiae, UniProt Q02574 1-474, looked up)
chain: MKLKLIVNGCEAPDDYKLLRTTINTVASLRKTAILRFNSERLTIISTPKSSLNSSNNGTILRGDTGQLWCTIPHDVFRLYTVISARELNTITMECNCDSLLSVFKRYDRVMNQGSSSNMTIKLQSMPEWNTNNGTLSGGTAGGVDTTSKPNPICALGITFEEIVHTSGPNDAIVMNGGVDEHNGLPTTVGTGNLLASNKVIMHSFKVPVKLLFRAQDTRIQEPMINYIQLMMYKLPPISGEFGSAFHGFIRRVERYSNVNHIHLMGVKKKEHGNEGDDVELKIIVNELDWHLEICWNGPLDSVIQRQEGLTDNPSQNQHIDTDGRQEEGSLPIIEADKPMSSLYTNTRDREMEENIRYDEDLLRIEDSSIADTRGNIYTADTSGDTEFNDISVMVEKAEQESSSTHEVIIRCKDWKVCSKLYAAFEEVVLAISHDESCVFHCSLDRGSLEDSEDVEKPRERGQIIYYIARSKGL

Tests used:
[1] = molecular target: T2, Rad24-RFC clamp loader;9-1-1 checkpoint clamp (Saccharomyces cerevisiae;Saccharomyces …, UniProt P32641;P40339;P38629;P40348;P38251;Q08949;Q02574;P48581 …, |); assay: cryo-EM
[2] = molecular target: T2, Rad24-RFC clamp loader;9-1-1 checkpoint …; assay: cryo-EM; remark: listed apart in the source
Mec3 = molecular target: B5; assay: cryo-EM structure
[3] = molecular target: Rad24-RFC clamp loader;32P-9-1-1 checkpoint clamp (Saccharomyces cerevisiae;Saccharomyces …, UniProt P32641;P40339;P38629;P40348;P38251;Q08949;Q02574;P48581 …, |); assay: magnetic bead clamp loading
Ddc1 = molecular target: T1, Ddc1; assay: cryo-EM structure

Binder: B1
binding result [1]: binds

Binder: B2
binding result [2]: binds

Binder: B3
binding result (Mec3): binds

Binder: B4
binding result [3]: binds

Binder: B5
binding result (Ddc1): binds
